Measurements taken from PMC3790964 (Biochimica et Biophysica Acta, 2013).

Target: the molecule itself
Test: cross-linking + affinity purification with mass spectrometry

B1: stomatin (natural protein, human (endogenous in erythrocytes), UniProt P27105 1-288, looked up)
chain: MAEKRHTRDSEAQRLPDSFKDSPSKGLGPCGWILVAFSFLFTVITFPISIWMCIKIIKEYERAIIFRLGRILQGGAKGPGLFFILPCTDSFIKVDMRTISFDIPPQEILTKDSVTISVDGVVYYRVQNATLAVANITNADSATRLLAQTTLRNVLGTKNLSQILSDREEIAHNMQSTLDDATDAWGIKVERVEIKDVKLPVQLQRAMAAEAEASREARAKVIAAEGEMNASRALKEASMVITESPAALQLRYLQTLTTIAAEKNSTIVFPLPIDMLQGIIGAKHSHLG
With B1 the “stoichiometry N” value was 2.
